The source of these data is US20230220443.

The data set deals with H3(1-53) peptide.

B1: protein lysine N-methyltransferase (histone H3 lysine-9 specific) from Neurospora crassa (NcDIM-5) (protein)
chain: IRSFATHAQLPISIVNREDDAFLNPNFRFIDHSIIGKNVPVADQSFRVGCSCASDEECMYSTCQCLDEMAPDSDEEADPYTRKKRFAYYSQGAKKGLLRDRVLQSQEPIYECHQGCACSKDCPNRVVERGRTVPLQIFRTKDRGWGVKCPVNIKRGQFVDRYLGEIITSEEADRRRAESTIARRKDVYLFALDKFSDPDSLDPLLAGQPLEVDGEYMSGPTRFINHSCDPNMAIFARVGDHADKHIHDLALFAIKDIPKGTELTFDYVNGLTGLESDAHDPSKISEMTKCLCGTAKCRGYLW
For the protein B1, the Km for peptide H3(1-53), TM0936-coupled methyltransferase assay (absorbance 263 nm), SAM saturating, 7.6 nM NcDIM-5, glycine buffer pH 9.50 is 0.9 µM.
